Results reported in publication PMC2756985 (Biochemistry, 2009).

Test: Oxygen dissociation rates of DevS proteins, stopped flow
Type: binding, Mycobacterium tuberculosis

B1: full-length Y171F DevS (protein, UniProt P9WGK3 1-578, looked up, variant Y171F)
chain: MTTGGLVDENDGAAMRPLRHTLSQLRLHELLVEVQDRVEQIVEGRDRLDGLVEAMLVVTAGLDLEATLRAIVHSATSLVDARYGAMEVHDRQHRVLHFVYEGIDEETVRRIGHLPKGLGVIGLLIEDPKPLRLDDVSAHPASIGFPPYHPPMRTFLGVPVRVRDESFGTLFLTDKTNGQPFSDDDEVLVQALAAAAGIAVANARLYQQAKARQSWIEATRDIATELLSGTEPATVFRLVAAEALKLTAADAALVAVPVDEDMPAADVGELLVIETVGSAVASIVGRTIPVAGAVLREVFVNGIPRRVDRVDLEGLDELADAGPALLLPLRARGTVAGVVVVLSQGGPGAFTDEQLEMMAAFADQAALAWQLATSQRRMRELDVLTDRDRIARDLHDHVIQRLFAIGLALQGAVPHERNPEVQQRLSDVVDDLQDVIQEIRTTIYDLHGASQGITRLRQRIDAAVAQFADSGLRTSVQFVGPLSVVDSALADQAEAVVREAVSNAVRHAKASTLTVRVKVDDDLCIEVTDNGRGLPDEFTGSGLTNLRQRAEQAGGEFTLASVPGASGTVLRWSAPLSQ
modifications: full-length
Question: Which O2 koff does the source give for B1 here?
Answer: 3.85 ± 0.69 ^b s^−1
